Source: the supplement of paper PMC10065799, “High-throughput profiling of sequence recognition by tyrosine kinases and SH2 domains using bacterial peptide display” (eLife, 2023)

Experiments:
EPHB1 = EPHB1 (UniProt P54762); assay: phosphorylation enrichment, bacterial display (enrichment ratio); higher = better substrate or ligand; peptides without Tyr show the background
Fes = Fes (UniProt P07332); assay: as above
c-Src = assay: as above
FGFR3 = FGFR3 (UniProt P22607); assay: as above
Fer (mouse) = assay: as above
Jak2 = Jak2 (UniProt O60674); assay: as above
Fyn = Fyn (UniProt P06241); assay: as above
MERTK = MERTK (UniProt Q12866); assay: as above
FGFR1 = FGFR1 (UniProt P11362); assay: as above
c-Abl (mouse) = assay: as above
EPHB2 = EPHB2 (UniProt P29323); assay: as above
AncSZ = assay: as above
Hck = Hck (UniProt P08631); assay: as above
Grb2 SH2 = Grb2 SH2 (UniProt P62993); assay: SH2 binding enrichment of the phosphorylated peptide, bacterial display (enrichment ratio); higher = better substrate or ligand; peptides without Tyr show the background
c-Src SH2 = assay: as above
SHP2-C SH2 = assay: as above
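Throughout, for SH2 binding enrichment of the phosphorylated peptide, bacterial display: peptide library displayed on the E. coli surface as eCPX fusions, selected cells deep-sequenced, score is each peptide's frequency after selection divided by its frequency in the input.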
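Throughout, for phosphorylation enrichment, bacterial display: 11-residue human phosphosite peptides and single-mutation variants displayed on the E. coli surface, counted by deep sequencing, each peptide's frequency after selection divided by its frequency in the unselected input library; frequency after pTyr selection over input frequency; kinase dosed for 20-30% of maximal phosphorylation in three min.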

Chain of FGFR3 (P22607 whole entry, looked up): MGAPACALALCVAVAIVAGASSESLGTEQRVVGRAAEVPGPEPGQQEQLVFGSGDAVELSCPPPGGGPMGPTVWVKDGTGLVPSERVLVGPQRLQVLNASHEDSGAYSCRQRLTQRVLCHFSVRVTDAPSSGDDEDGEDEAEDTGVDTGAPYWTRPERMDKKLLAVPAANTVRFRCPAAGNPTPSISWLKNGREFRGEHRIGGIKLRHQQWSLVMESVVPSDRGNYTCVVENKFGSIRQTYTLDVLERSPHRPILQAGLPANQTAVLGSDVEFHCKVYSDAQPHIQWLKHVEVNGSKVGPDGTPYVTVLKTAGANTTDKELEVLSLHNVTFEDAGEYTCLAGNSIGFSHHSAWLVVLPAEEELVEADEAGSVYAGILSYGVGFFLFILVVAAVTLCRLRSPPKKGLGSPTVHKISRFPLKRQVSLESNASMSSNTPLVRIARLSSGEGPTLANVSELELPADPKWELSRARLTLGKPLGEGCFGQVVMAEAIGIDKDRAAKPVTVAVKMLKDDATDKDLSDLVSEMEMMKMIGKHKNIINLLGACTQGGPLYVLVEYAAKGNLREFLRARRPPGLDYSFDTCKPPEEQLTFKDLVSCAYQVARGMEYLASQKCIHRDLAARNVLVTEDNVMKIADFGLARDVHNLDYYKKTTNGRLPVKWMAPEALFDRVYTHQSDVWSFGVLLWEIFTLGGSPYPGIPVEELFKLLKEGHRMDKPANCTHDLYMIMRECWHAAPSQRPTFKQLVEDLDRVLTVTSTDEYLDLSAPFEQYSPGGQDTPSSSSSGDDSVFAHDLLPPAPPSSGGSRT
Chain of FGFR1 (P11362 whole entry, looked up): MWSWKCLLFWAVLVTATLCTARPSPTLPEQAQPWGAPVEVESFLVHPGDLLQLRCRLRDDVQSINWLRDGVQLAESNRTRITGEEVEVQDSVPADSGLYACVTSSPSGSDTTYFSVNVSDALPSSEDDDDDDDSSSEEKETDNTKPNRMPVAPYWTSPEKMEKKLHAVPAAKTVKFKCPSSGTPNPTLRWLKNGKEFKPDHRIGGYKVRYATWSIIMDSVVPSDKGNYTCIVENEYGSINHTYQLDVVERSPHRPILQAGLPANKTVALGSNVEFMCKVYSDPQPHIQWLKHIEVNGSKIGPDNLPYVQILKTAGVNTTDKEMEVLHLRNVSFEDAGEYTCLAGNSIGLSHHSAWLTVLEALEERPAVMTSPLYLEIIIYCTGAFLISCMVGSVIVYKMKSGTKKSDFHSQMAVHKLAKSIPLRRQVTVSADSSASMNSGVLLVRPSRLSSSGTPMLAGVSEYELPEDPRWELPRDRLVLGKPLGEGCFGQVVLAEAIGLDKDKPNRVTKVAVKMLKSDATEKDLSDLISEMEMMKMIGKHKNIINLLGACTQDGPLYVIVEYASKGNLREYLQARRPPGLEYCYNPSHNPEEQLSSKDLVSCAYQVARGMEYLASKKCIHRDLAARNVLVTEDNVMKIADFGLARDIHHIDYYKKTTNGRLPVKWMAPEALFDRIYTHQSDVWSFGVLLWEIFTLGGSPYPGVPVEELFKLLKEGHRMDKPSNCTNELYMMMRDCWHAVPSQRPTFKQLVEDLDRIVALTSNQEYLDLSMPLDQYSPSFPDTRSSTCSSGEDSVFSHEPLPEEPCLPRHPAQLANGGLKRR
Chain of MERTK (Q12866 whole entry, looked up): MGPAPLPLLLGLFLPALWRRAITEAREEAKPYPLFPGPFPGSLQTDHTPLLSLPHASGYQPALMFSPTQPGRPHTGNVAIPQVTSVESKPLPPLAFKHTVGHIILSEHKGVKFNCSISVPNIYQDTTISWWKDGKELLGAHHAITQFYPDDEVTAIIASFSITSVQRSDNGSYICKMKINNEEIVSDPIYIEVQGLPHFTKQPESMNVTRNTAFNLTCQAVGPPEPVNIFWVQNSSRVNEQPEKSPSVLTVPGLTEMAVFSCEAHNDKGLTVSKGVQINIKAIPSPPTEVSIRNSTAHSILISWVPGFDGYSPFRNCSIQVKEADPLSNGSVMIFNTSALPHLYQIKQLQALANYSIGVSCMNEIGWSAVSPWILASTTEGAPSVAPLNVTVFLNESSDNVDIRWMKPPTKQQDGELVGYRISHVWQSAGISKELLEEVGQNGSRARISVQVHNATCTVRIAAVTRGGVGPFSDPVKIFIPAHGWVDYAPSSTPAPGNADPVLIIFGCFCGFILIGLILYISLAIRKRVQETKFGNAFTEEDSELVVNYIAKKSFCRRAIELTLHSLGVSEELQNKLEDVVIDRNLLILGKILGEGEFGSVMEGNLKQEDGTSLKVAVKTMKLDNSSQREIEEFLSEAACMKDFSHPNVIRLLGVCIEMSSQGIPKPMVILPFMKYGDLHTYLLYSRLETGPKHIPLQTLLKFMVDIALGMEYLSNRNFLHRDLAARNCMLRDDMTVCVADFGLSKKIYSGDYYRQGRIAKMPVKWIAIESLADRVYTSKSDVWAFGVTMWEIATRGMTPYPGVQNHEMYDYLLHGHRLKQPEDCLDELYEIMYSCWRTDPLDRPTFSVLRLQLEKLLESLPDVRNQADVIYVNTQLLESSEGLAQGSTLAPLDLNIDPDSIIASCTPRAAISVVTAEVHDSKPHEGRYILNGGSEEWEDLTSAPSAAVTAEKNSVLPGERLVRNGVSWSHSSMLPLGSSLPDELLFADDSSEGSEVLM
Chain of Hck (P08631 whole entry, looked up): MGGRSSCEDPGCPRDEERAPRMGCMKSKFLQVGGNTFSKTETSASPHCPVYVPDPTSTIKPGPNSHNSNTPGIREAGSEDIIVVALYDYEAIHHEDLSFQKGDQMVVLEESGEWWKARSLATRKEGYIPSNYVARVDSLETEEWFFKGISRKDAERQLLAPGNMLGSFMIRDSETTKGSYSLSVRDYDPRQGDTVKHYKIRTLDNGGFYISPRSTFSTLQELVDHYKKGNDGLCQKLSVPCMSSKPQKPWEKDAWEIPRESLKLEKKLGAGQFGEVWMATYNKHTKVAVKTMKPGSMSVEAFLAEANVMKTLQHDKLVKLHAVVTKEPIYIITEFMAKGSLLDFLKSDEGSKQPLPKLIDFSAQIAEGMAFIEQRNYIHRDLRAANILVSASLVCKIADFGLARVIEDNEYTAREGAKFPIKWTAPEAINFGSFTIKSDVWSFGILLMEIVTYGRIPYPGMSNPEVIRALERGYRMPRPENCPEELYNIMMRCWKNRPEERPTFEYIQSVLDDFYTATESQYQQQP
Chain of Fyn (P06241 whole entry, looked up): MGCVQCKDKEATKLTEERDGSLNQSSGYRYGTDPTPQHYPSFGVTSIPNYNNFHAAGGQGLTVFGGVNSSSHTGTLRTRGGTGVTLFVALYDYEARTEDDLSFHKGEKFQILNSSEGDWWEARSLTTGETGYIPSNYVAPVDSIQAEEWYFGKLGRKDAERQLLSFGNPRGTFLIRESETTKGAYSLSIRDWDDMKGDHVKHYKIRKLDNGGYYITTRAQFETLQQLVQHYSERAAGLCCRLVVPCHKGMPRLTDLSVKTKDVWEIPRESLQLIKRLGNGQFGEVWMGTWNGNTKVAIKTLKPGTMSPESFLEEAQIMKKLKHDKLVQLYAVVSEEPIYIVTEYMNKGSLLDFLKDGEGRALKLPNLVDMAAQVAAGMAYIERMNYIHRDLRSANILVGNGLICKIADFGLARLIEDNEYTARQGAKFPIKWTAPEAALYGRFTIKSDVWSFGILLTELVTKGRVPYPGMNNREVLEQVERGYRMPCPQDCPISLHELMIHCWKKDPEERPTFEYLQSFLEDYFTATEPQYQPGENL
Chain of Jak2 (O60674 whole entry, looked up): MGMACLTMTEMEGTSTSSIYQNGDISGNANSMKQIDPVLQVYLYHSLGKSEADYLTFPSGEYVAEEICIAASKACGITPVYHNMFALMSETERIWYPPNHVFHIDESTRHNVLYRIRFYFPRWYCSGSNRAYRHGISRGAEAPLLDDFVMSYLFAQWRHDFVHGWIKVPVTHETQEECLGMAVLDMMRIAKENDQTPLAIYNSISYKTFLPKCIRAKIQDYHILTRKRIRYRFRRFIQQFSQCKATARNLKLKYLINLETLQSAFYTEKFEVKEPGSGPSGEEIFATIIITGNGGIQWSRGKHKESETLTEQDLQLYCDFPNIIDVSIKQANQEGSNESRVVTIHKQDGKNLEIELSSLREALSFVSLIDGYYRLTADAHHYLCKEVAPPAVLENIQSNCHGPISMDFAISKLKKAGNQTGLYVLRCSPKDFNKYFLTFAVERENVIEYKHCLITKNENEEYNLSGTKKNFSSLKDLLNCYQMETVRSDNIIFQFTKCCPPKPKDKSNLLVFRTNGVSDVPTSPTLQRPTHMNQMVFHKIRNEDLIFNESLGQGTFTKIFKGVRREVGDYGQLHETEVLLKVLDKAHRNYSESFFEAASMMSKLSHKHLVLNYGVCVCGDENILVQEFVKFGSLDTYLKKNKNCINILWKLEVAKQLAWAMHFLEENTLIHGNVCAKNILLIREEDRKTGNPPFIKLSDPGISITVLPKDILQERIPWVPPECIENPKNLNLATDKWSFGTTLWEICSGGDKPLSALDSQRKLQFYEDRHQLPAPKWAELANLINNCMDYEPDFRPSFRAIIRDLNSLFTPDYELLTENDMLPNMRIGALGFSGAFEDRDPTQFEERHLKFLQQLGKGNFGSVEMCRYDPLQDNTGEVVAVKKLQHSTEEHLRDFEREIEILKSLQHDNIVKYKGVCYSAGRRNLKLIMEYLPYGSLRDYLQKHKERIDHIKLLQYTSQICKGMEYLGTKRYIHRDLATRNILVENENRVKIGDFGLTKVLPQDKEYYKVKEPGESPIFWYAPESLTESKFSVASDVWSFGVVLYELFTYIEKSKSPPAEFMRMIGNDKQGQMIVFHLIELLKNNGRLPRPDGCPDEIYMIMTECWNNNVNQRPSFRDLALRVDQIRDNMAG

SH2 binding enrichment (Grb2 SH2)	SH2 binding enrichment (c-Src SH2)	SH2 binding enrichment (SHP2-C SH2)	Sequence	phosphorylation enrichment (EPHB1)	phosphorylation enrichment (Fes)	phosphorylation enrichment (c-Src)	phosphorylation enrichment (FGFR3)	phosphorylation enrichment (Fer (mouse))	phosphorylation enrichment (Jak2)	phosphorylation enrichment (Fyn)	phosphorylation enrichment (MERTK)	phosphorylation enrichment (FGFR1)	phosphorylation enrichment (c-Abl (mouse))	phosphorylation enrichment (EPHB2)	phosphorylation enrichment (AncSZ)	phosphorylation enrichment (Hck)
0.872	0.543	0.582	ASYGPNTRVQS [FOXL2_Y258_Y258N]	0.474	0.596	0.478	0.407	0.448	0.515	0.41	0.435	0.444	0.559	0.407	0.537	0.454
1.04	0.784	0.86	ATARPYRPYII [LRP5_Y1528]	0.457	0.793	0.581	0.545	0.482	0.465	0.55	0.468	0.396	0.688	0.362	0.675	0.413
0.877	0.461	0.662	AVDMTYDGHPV [FLNB_Y1020_V1018M]	1.67	0.926	3.61	0.737	0.89	0.765	3.3	0.593	0.576	0.768	4.79	1.19	3.87
0.867	0.669	0.976	AVLSLYASGRN [ACTA1_Y145_T150N]	0.519	0.989	0.419	0.581	0.549	0.958	0.44	0.388	0.436	0.737	0.557	0.858	0.688
1.52	1.18	1.87	AVLVQYYMEHH [PTPN11_Y80_E76V]	2.43	1.21	0.596	0.868	0.516	0.821	0.673	0.89	0.753	0.708	1.32	0.987	0.875
0.866	3.31	0.899	AVVEPYNSILT [TUBA1A_Y185]	0.489	0.83	0.453	0.496	0.377	0.802	0.434	0.415	0.438	0.534	0.365	0.686	0.43
0.893	0.634	0.771	AYRHGYFDEEM [PLEC_Y2971_R2969H]	0.664	1.05	0.461	0.657	0.526	0.827	0.593	0.5	0.676	0.742	0.631	1.03	0.643
1.19	1.43	1.2	CASQLCPRHKH [DCTN4_Y263_Y263C]	0.305	0.533	0.312	0.332	0.367	0.495	0.366	0.358	0.33	0.451	0.393	0.477	0.326
0.861	0.51	0.537	CCNHPYRINGA [CHD7_Y1256_L1257R]	0.38	0.621	0.64	0.564	0.454	0.396	0.542	0.404	0.575	0.434	0.46	0.505	0.464
0.795	0.519	0.678	CEHRGSLYLAI [TEK_Y897_Y897S]	0.714	1.24	0.891	0.847	0.573	1.16	0.552	1.24	0.609	0.933	0.585	1.13	0.606
0.731	0.518	0.556	CEQELYSQLVY [WAS_Y102_W97C]	4.86	1.81	5.28	3.67	11.2	1.22	6.54	5.03	3.8	1.14	5.74	1.9	6.75
0.746	0.632	0.72	CERLPYDASKW [FLT1_Y815]	0.589	1.13	0.464	0.688	0.49	1.01	0.45	0.409	0.523	0.824	0.46	0.951	0.525
1.78	0.789	1.8	CFVFFYSFLLK [PTEN_Y178_R173C_YF]	0.473	1.03	0.519	0.865	0.487	0.987	0.459	0.557	0.423	0.86	0.72	0.997	0.578
0.741	0.556	0.756	CGASGYSATST [CERT1_Y143_S138C]	0.55	1.08	0.489	0.872	0.675	1.06	0.476	0.523	0.457	0.746	0.706	1.02	0.51
0.838	0.442	0.536	CGLPRYRWLTH [TSPAN12_Y143_Y138C]	0.47	0.929	0.357	0.476	0.438	0.669	0.707	0.461	0.435	0.453	0.645	0.848	0.525
1.84	0.856	1.15	CKRQFYLYKGK [RSPO4_Y112]	0.333	0.926	0.312	0.704	0.431	0.746	0.432	0.331	0.427	0.438	0.49	0.836	0.43
0.942	0.66	0.519	CPFNLYAEQFS [HGD_Y40_L44F_YF]	2.19	1.54	1.49	0.847	0.923	1.34	0.834	1.6	0.747	1.16	1.29	1.45	1.08

SH2 binding enrichment (Grb2 SH2)	SH2 binding enrichment (c-Src SH2)	SH2 binding enrichment (SHP2-C SH2)	Sequence	phosphorylation enrichment (EPHB1)	phosphorylation enrichment (Fes)	phosphorylation enrichment (c-Src)	phosphorylation enrichment (FGFR3)	phosphorylation enrichment (Fer (mouse))	phosphorylation enrichment (Jak2)	phosphorylation enrichment (Fyn)	phosphorylation enrichment (MERTK)	phosphorylation enrichment (FGFR1)	phosphorylation enrichment (c-Abl (mouse))	phosphorylation enrichment (EPHB2)	phosphorylation enrichment (AncSZ)	phosphorylation enrichment (Hck)
2.08	1.06	0.784	CPPELYALMSD [ZAP70_Y569]	3.39	1.31	0.828	1	1.19	0.892	0.612	3.54	0.905	0.681	1.13	1.57	1.08
1.27	1.36	1.4	CRPPFYHRNCM [HGD_Y334_F329C_YF]	0.474	0.776	0.901	0.635	0.375	0.606	0.492	0.452	0.435	0.58	0.555	0.913	0.48
0.74	1.81	0.889	CTLLPYYSARV [DGKE_Y269]	0.601	1.04	0.579	0.699	0.497	0.937	0.464	0.508	0.485	0.735	0.655	1.03	0.604
0.729	0.632	0.711	CTTIHCNYMCN [TP53_Y234_Y234C]	0.784	1.15	1.14	0.731	0.599	0.921	0.403	0.395	0.41	0.775	0.612	1.06	0.503
1.33	2.73	5.53	CTTIHYHYMCN [TP53_Y234_N235H]	0.551	0.963	0.414	0.667	0.523	0.668	0.561	0.446	0.568	0.661	0.425	0.964	0.551
0.96	0.772	0.788	CTTIHYNFMGN [TP53_Y234_C238G_YF]	0.565	0.876	0.402	0.523	0.472	0.73	0.464	0.532	0.542	0.699	0.487	0.926	0.478
1.94	1.93	1.59	CTTIHYNFVCN [TP53_Y234_M237V_YF]	0.678	1.11	0.532	0.769	0.694	1.01	0.539	0.508	0.694	0.754	0.654	0.998	0.54
0.951	1.06	1.13	CTTIHYNYMFN [TP53_Y234_C238F]	0.672	1.21	0.522	0.812	0.757	1	0.555	0.681	0.657	0.926	0.641	1.14	0.498
1.36	7.58	4.2	CTTIHYNYVCN [TP53_Y234_M237V]	0.616	0.949	0.455	0.648	0.696	0.828	0.556	0.498	0.685	0.595	0.645	0.904	0.514
1.88	2.62	4.43	CTTIHYSFMCN [TP53_Y234_N235S_YF]	0.568	1	0.544	0.666	0.942	0.734	0.563	0.843	0.636	0.828	0.572	1.08	0.559
0.76	0.517	0.576	CVVVPYEPPEV [TP53_Y220_S215C]	0.864	1.54	0.557	1.03	0.854	1.38	0.568	0.462	0.574	1.01	0.641	1.65	0.599
1.26	0.92	1.2	CWAVKYLQMVG [AVPR2_Y117_R113W]	0.622	1.39	0.434	0.703	0.504	1.26	0.413	0.386	0.495	0.817	0.832	1.37	0.466
0.816	0.609	0.598	DAAEDYAEGVC [DHODH_Y194_R199C]	0.801	1.24	0.559	0.895	0.765	1.19	0.566	0.492	0.658	0.917	0.713	1.31	0.559
0.938	0.481	0.758	DAGTDYVGISR [FREM2_Y2061]	0.445	0.64	0.459	0.621	0.459	0.496	0.482	0.414	0.541	0.54	0.492	0.606	0.545
0.735	0.47	0.999	DAVAVYDGKIS [SH2D1A_Y7_H8D]	0.589	0.988	0.83	0.565	0.456	0.778	0.655	0.498	0.44	0.728	0.622	0.721	2.02
0.847	0.461	0.722	DAVKHYMQFRK [CNGA2_Y395]	0.359	0.558	0.441	0.427	0.366	0.44	0.591	0.397	0.344	0.54	0.363	0.46	0.555
